In patent US20170296640A1 (IMMATICS BIOTECHNOLOGIES, published 2017):

B1: SLDQSTWNV (SEQ ID NO: 101) (peptide)
peptide: SLDQSTWNV
B2: HLMEENMIVYV (SEQ ID NO: 127) (peptide)
peptide: HLMEENMIVYV
B3: GLSDISPST (SEQ ID NO: 114) (peptide)
peptide: GLSDISPST
B4: FVIDSFEEL (SEQ ID NO: 113) (peptide)
peptide: FVIDSFEEL
B5: YLAPENGYLM (SEQ ID NO: 108) (peptide)
peptide: YLAPENGYLM
B6: FVAPPTAAV (SEQ ID NO: 125) (peptide)
peptide: FVAPPTAAV
B7: VLDGMIYAI (SEQ ID NO: 118) (peptide)
peptide: VLDGMIYAI
B8: YLLDTLLSL (SEQ ID NO: 111) (peptide)
peptide: YLLDTLLSL
B9: SLLDNLLTI (SEQ ID NO: 116) (peptide)
peptide: SLLDNLLTI
B10: FLGVVVPTV (SEQ ID NO: 124) (peptide)
peptide: FLGVVVPTV
B11: LLSGQLPTI (SEQ ID NO: 1) (peptide)
peptide: LLSGQLPTI
B12: YQYPFVLGL (SEQ ID NO: 110) (peptide)
peptide: YQYPFVLGL
B13: VQAVSIPEV (SEQ ID NO: 107) (peptide)
peptide: VQAVSIPEV
B14: SLFAAISGMIL (SEQ ID NO: 102) (peptide)
peptide: SLFAAISGMIL
B15: GLLLLVPLL (SEQ ID NO: 12) (peptide)
peptide: GLLLLVPLL
B16: ALLSAFVQL (SEQ ID NO: 123) (peptide)
peptide: ALLSAFVQL
B17: VLATILAQL (SEQ ID NO: 117) (peptide)
peptide: VLATILAQL
B18: YLTGYNFTL (SEQ ID NO: 121) (peptide)
peptide: YLTGYNFTL
B19: GLDTVVALL (SEQ ID NO: 11) (peptide)
peptide: GLDTVVALL
B20: VLTPVILQV (SEQ ID NO: 105) (peptide)
peptide: VLTPVILQV
B21: FLLVGTQIDL (SEQ ID NO: 10) (peptide)
peptide: FLLVGTQIDL
B22: SLQDHLEKV (SEQ ID NO: 103) (peptide)
peptide: SLQDHLEKV
B23: YLFQFSAAL (SEQ ID NO: 109) (peptide)
peptide: YLFQFSAAL
B24: VLYELLQYI (SEQ ID NO: 106) (peptide)
peptide: VLYELLQYI
B25: ELCDIILRV (SEQ ID NO: 119) (peptide)
peptide: ELCDIILRV
B26: VLLGLPLLV (SEQ ID NO: 104) (peptide)
peptide: VLLGLPLLV
B27: AISEAQESV (SEQ ID NO: 122) (peptide)
peptide: AISEAQESV
B28: LLIDIIHFL (SEQ ID NO: 115) (peptide)
peptide: LLIDIIHFL
B29: VLLGTTWAL (SEQ ID NO: 120) (peptide)
peptide: VLLGTTWAL
B30: FLAILPEEV (SEQ ID NO: 112) (peptide)
peptide: FLAILPEEV

Target: T1, HLA-A*02:01 (peptide-receptive MHC class I monomer after UV cleavage of the UV-sensitive ligand) (human)
T1 construct: MHC monomers loaded by UV-ligand exchange and captured on streptavidin plates
Assay: UV ligand-exchange ELISA; exchange yield grade (+ >=10%, ++ >=20%, +++ >=50%, ++++ >=75%)
Description: Candidate peptides for T cell based therapies according to the present invention were further tested for their MHC binding capacity (affinity). The individual peptide-MHC complexes were produced by UV-ligand exchange, where a UV-sensitive peptide is cleaved upon UV-irradiation, and exchanged with the peptide of interest as analyzed. Only peptide candidates that can effectively bind and stabilize the peptide-receptive MHC molecules prevent dissociation of the MHC complexes. To determine the yield of the exchange reaction, an ELISA was performed based on the detection of the light chain (β2m) of stabilized MHC complexes. The assay was performed as generally described in Rodenko et al. (Rodenko et al., 2006).
96 well MAXISorp plates (NUNC) were coated over night with 2 ug/ml streptavidin in PBS at room temperature, washed 4× and blocked for 1 h at 37° C. in 2% BSA containing blocking buffer. Refolded HLA-A*02:01/MLA-001 monomers served as standards, covering the range of 15-500 ng/ml. Peptide-MHC monomers of the UV-exchange reaction were diluted 100 fold in blocking buffer. Samples were incubated for 1 h at 37° C., washed four times, incubated with 2 ug/ml HRP conjugated anti-β2m for 1 h at 37° C., washed again and detected with TMB solution that is stopped with […]. Absorption was measured at 450 nm. Candidate peptides that show a high exchange yield (preferably higher than 50%, most preferred higher than 75%) are generally preferred for a generation and production of antibodies or fragments thereof, and/or T cell receptors or fragments thereof, as they show sufficient avidity to the MHC molecules and prevent dissociation of the MHC complexes.

Row | peptide exchange yield [%] | Binder
1 | ≥ 75 | B1
2 | 50 to 75 | B2
3 | 20 to 50 | B3
4 | 50 to 75 | B4
5 | 50 to 75 | B5
6 | 50 to 75 | B6
7 | 50 to 75 | B7
8 | 50 to 75 | B8
9 | 50 to 75 | B9
10 | 50 to 75 | B10
11 | 50 to 75 | B11
12 | ≥ 75 | B12
13 | 50 to 75 | B13
14 | 50 to 75 | B14
15 | 50 to 75 | B15
16 | 50 to 75 | B16
17 | ≥ 75 | B17
18 | 50 to 75 | B18
19 | 50 to 75 | B19
20 | 50 to 75 | B20
21 | 50 to 75 | B21
22 | 50 to 75 | B22
23 | 50 to 75 | B23
24 | ≥ 75 | B24
25 | 50 to 75 | B25
26 | 50 to 75 | B26
27 | 20 to 50 | B27
28 | ≥ 75 | B28
29 | 50 to 75 | B29
30 | 50 to 75 | B30
